# According to patent publication US20210230254A1 (published 2021):
# Where a chain is given by its changes, count along the chain named.
# B1: 8ANC50 (antibody, V domains shown)
# VH: QGQLVQSGGGVKKPGTSVTISCLASEYTFTEFTIHWIRQAPGQGPLWLGLIKRSGRLMTAYRFQDRLSLRRDRSTGTVFMELRNLRMDDTAVYYCARDGLGELAPAYQYGIDVWGQGTTVIVSS
# VL: EIVLTQSPTTLSLSPGERATLSCRASQGVNLVVWYQQKRGQAPRLLIYGPSDRAPGVPDRFSARGSGTEFSLVISSVEPDDFALYYCQEYSSTPYNFGTGTRVDRKR
# notes: also called 8ANC50HC; 8ANC50KC
# B2: 8ANC14 (antibody, V domains shown)
# VH: QVQLVQSGAEVKKPGASVKVSCKVSGYTLTELSIHWVRQAPGKGLEWMGGFDSEDGEAFYKQNFQGRVTMTEDTSTDTAYMELRRLRSEDTAVYYCATADRFKVAQDEGLFVIFDYWGQGTLVTVSS
# VL: EIVLTQSPATLSLSPGERATLSCRASQSINNYLAWYQQKPGQAPRLLIYDASNRATGIPARFSGGGSGTDFTLTISSLEPEDFAVYYCQQRANWRLLTFGGGTKVEIKR
# notes: also called 8ANC14HC; 8ANC14KC
# B3: 8ANC5 (antibody, V domains shown)
# VH: QVQLVQSGAEVRKPGSSLKVSCKSSGGTFSRFVVNWVRQAPGQGLEWMGGMIPIFGIAKYAQKFQDRVTMTADESKNTVYLDFSSLRSDDTAVYYCARDRGDTRLLDYGDYEDERYYYGMDVWGQGTTVIVSS
# VL: DIQMTQSPPSLSASVGDRVTITCQASQDINNFLNWYQQKPGKAPRLLIYDASNLESGVSSRFSGSRSGTDFTLTISSLLPEDIATYSCQQYSNLPYTFSQGTKLEIKR
# notes: also called 8ANC5HC; 8ANC5KC
# B4: 8ANC24 (antibody, V domains shown)
# VH: QVQLVQSGAEVKMPGASVKVSCKVSGYSLTELSIHWVRQAPGKRLEWMGGFDPEDDERIYAQKFQDRVTMTEDTSTDTAYMDLNSLRSEDTAVYYCTTGGLYCSSISCIMDVWGQGTTVIVSS
# VL: EIVMTQSPATLSMSPGERATLSCRASLSVNTNLAWYQQKPGQAPRLLIYGASTRATGIPARFSGSGSGTEFTLTISSLQSEDFALYYCQQYNHWPQTFGQGTKVEIKR
# notes: also called 8ANC24HC; 8ANC24KC
# B5: 3B41 (antibody, V domains shown)
# VH: EVQLVQSGAEVKKPGASVKVSCKVSGYTLTELSMHWVRQAPGKGLEWMGVFDPLEGDGVYAEKFRGRVIMTEDTSTDTGYMELTSLRSEDTAIYYCATKAKDYYYESSDYSPYYYYYMDVWGKGTTVTVSS
# VL: EIVLTQSPGTLSLSPGERATLSCRASQSVSSNYLAWYQQKPGQAPRLLIYGASSRATGIPDRFSGSGSGTDFTLSISRLEPEDFAVYYCQQYGTSSCTFGQGTKLEIKR
# notes: also called 3B41HC; 3b41kc
# B6: 3B27 (antibody, V domains shown)
# VH: EVQLVESGGGLVQPGGSLRISCSATGFTFSTHAMHWVRQAPGKGLEYVSAINSNGRSAFYADSVKGRVTISRDNSKNTLFLQMTSLRAEDTAVYYCVKGPLLRYLDSWGQGTLVTVSS
# VL: EIVLTQSPATLSVSPGERATLSCRAGQSVSSDLAWYQHKPGQAPRLLIYDASKRATGIPARFSGSGSGTDFTLTISSLEPEDFAVYYCQHRTNWPPSITFGQGTRLEIKR
# notes: also called 3B27HC; 3b27kc
# B7: 12A21 (antibody, V domains shown)
# VH: SQHLVQSGTQVKKPGASVRVSCQASGYTFTNYILHWWRQAPGQGLEWMGLIKPVFGAVNYARQFQGRIQLTRDIYREIAFLDLSGLRSDDTAVYYCARDESGDDLKWHLHPWGQGTQVIVSP
# VL: DIQMTQSPSSLSASVGDRVTINCQAGQGIGSSLNWYQKKPGRAPKLLVHGASNLQRGVPSRFSGSGFHTTFTLTISSLQPDDVATYFCAVFQWFGPGTKVDIKR
# notes: also called 12A21HC; 12a21kc
# B8: 8ANC195 (antibody, V domains shown)
# VH: QIHLVQSGTEVKKPGSSVTVSCKAYGVNTFGLYAVNWVRQAPGQSLEYIGQIWRWKSSASHHFRGRVLISAVDLTGSSPPISSLEIKNLTSDDTAVYFCTTTSTYDKWSGLHHDGVMAFSSWGQGTLISVSA
# VL: DIQMTQSPSTLAASIGGTVRVSCRASQSITGNWVAWYQQRPGKAPRLLIYRGAALLGGVPSRFSGSAAGTDFTLTIGNLQAEDFGTFYCQQYDTYPGTFGQGTKVEVKR
# notes: also called 8ANC195HC; 8ANC195KC
# B9: 12A12 (antibody, V domains shown)
# VH: SQQLVQSGTQVKKPGASVRISCQASGYSFTDYVLHWWRQAPGQGLEWMGWIKPVYGARNYARRFQGRINFDRDIYREIAFMDLSGLRSDDTALYFCARDGSGDDTSWHLDPWGQGTLVIVSA
# VL: DIQMTQSPSSLSASVGDRVTITCQAGQGIGSSLQWYQQKPGKAPKLLVHGASNLHRGVPSRFSGSGFHTTFSLTISGLQRDDFATYFCAVLEFFGPGTKVEIKR
# notes: also called 12A12HC; 12a12kc
# B10: 3BNC60 (antibody, V domains shown)
# VH: QVHLSQSGAAVTKPGASVRVSCEASGYKISDHFIHWWRQAPGQGLQWVGWINPKTGQPNNPRQFQGRVSLTRQASWDFDTYSFYMDLKAVRSDDTAIYFCARQRSDFWDFDVWGSGTQVTVSSASTKG
# VL: DIQMTQSPSSLSARVGDTVTITCQANGYLNWYQQRRGKAPKLLIYDGSKLERGVPARFSGRRWGQEYNLTINNLQPEDVATYFCQVYEFIVPGTRLDLKRTVAA
# notes: also called 3BNC60HC; 3BNC60KC
# B11: 3BNC117 (antibody, V domains shown)
# VH: B10 VH with H3Q, S5L, K28N, S30R, H32Y, Q73H, Y81F, V90L, I97V, F107Y
# VL: DIQMTQSPSSLSASVGDTVTITCQANGYLNWYQQRRGKAPKLLIYDGSKLERGVPSRFSGRRWGQEYNLTINNLQPEDIATYFCQVYEFVVPGTRLDLKRTVAAPSVFIFPPSD
# notes: also called 3BNC117HC; 3bnc117kc
# B12: 1B2530 (antibody, V domains shown)
# VH: QVRLEQSGAAMRKPGASVTLSCQASGYNFVKYIIHWVRQKPGLGFEWVGMIDPYRGRPWSAHKFQGRLSLSRDTSMEILYMTLTSLKSDDTATYFCARAEAASDSHSRPIMFDHWGQGSRVTVSS
# VL: QSALTQPPSASGAPGQRVTISCSGGPSNVGGNYVYWYRQFPGTAPTLLILRDDQRPSGVPDRFSASKSGNSASLAISGLRPDDEGFYFCATYDSDGSIRLFGGGTALTVLS
# notes: also called LSSB2530HC; LSSB2530LC
# B13: 1NC9 (antibody, V domains shown)
# VH: QVRLVQSGAQLKKPGASVTVSCEASGYNFVNYIINWVRQTPGRSFEWVGMIDPRRGRPWSAQKFQGRLTLTRDIDSEKLYMHLSGLRGDDTAVYYCARQDSDFHDGHGHTLRGMFDSWGQGSPVTVSS
# VL: QVLSVSGTPGQRVIISCSGTSSNVGGNLVSWYQHLPGAAPRLLIHRDDQRPSGVPDRFSGSKSGNSASLVISGLRSDDEADYFCAAYDSTFSLPVFGGGTRLTVLS
# notes: also called LSSNEC9HC; LSSNEC9LC
# B14: 8ANC131 (antibody, V domains shown)
# VH: QGQLVQSGGGLKKPGTSVTISCLASEYTFNEFVIHWIRQAPGQGPLWLGLIKRSGRLMTAYNFQDRLRLRRDRSTGTVFMELRGLRPDDTAVYYCARDGLGEVAPDYRYGIDVWGQGSTVIVTA
# VL: B1 VL with T9A, V29L, L31F, Y48H, G49A, D52G, L84I, T99P
# notes: also called 8ANC131HC; 8ANC131KC
# B15: 8ANC134 (antibody, V domains shown)
# VH: B14 VH with L11V, L46V, A60S, N62K, R68S, P87L, D106A, R108L, V113A, A124S
# VL: B1 VL with T9A, V29L, L31F, R39G, Y48H, S51T, T99P
# notes: also called 8ANC134HC; 8ANC134KC
# B16: NIH45-46 (antibody, V domains shown)
# VH: QVRLSQSGGQMKKPGESMRLSCRASGYEFLNCPINWIRLAPGRRPEWMGWLKPRGGAVNYARKFQGRVTMTRDVYSDTAFLELRSLTSDDTAVYFCTRGKYCTARDYYNWDFEH
# VL: EIVLTQSPATLSLSPGETAIISCRTSQSGSLAWYQQRPGQAPRLVIYSGSTRAAGIPDRFSGSRWGADYNLSISNLESGDFGVYYCQQYEFFG
# B17: 3BNC55 (antibody, V domains shown)
# VH: QVQLVQSGTAVKRPGASVRVSCQASGYTFTDYFIYWWRQAPGQGLEWLGWINPLTSQPSYPSRFQGRLTLTRDTFDEMLYMDLRGLRSDDTGIYFCARRHSDYCDFDIWGSGTQIIVSS
# VL: DIQMTQSPSSLSASVGDKVTITCQTSAGYLNWYQQRRGRAPKLLMYDGSRLVTGVPSRFSGRRWGTQYNLTIGSLQPEDIATYYCQVYEFFGPGTRLDLKS
# notes: also called 3BNC55HC; 3BNC55KC
# B18: 3BNC66 (antibody, V domains shown)
# VH: QVQLVQSGAALKKPGASLRISCQTYGYKFTDHLIYWWRQAPGQGLEWIGWIKPETGQPSYSYRFQGRVSLTRDTFEEIAFMDLRGLRSDDTAIYFCARRHTDYCVFDVWGSGSQIIVSS
# VL: B17 VL with K18T, S26N, A27K, R50K, F59L, S101R
# notes: also called 3BNC66HC; 3bnc66kc
# B19: 3BNC156 (antibody, V domains shown)
# VH: B18 VH with A79V, T101S, V105D, S111G, I115V
# VL: B17 VL with K18T, S26N, A27K, R36K, R50K, F59L, S101R
# notes: also called 3BNC156HC; 3bnc156kc
# Target: T1, YU2 gp120 (HIV-1 YU2, UniProt P35961 32-498)
# T1 construct: domain: gp120
# Experiment: ELISA, column Binding
# Description: (§1) ELISAs. […] After washing, plates were blocked 2 h with 2% BSA, 1 μM EDTA, 0.05% Tween-PBS (Blocking buffer) and then, incubated 2h with IgG antibodies diluted at 4 μg/ml and several consecutive 1:4 dilutions in PBS. After washing, the plates were developed by incubation for 1 h with goat HRP-conjugated anti-mouse IgG (Jackson ImmunoReseach) (at 0.8 μg/ml in blocking buffer) and by adding 100 μl of HRP chromogenic substrate (ABTS solution, Invitrogen). […] Background values given by incubation of PBS alone in coated wells were subtracted. […] Threshold values for reactivity were determined by using control antibodies mGO53 (negative), eiJB40 (low positive), and ED38 (high positive).
row,Binder,binding result
1,B1,binds
2,B2,binds
3,B3,binds
4,B4,binds

# Target: T1, YU2 gp120
# Experiment: ELISA, column Binding
# Remark: another data set of the same source
# Description: as §1
row,Binder,binding result
1,B5,binds
2,B6,binds

# Target: T2, YU-2 gp140 (HIV-1 YU2, UniProt P35961 32-670)
# T2 construct: domain: gp140; also called YU2 gp140 trimer
# Experiment: SPR, gp140 on chip, IgG injected
Binder,koff [s⁻¹],kon [M⁻¹ s⁻¹],Kd [nM]
B7,3.44e-07,91800,–
B8,0.00167,48800,34.3
B9,1.44e-05,45900,0.315
B10,0.000186,27300,6.81
B11,0.000199,30400,6.54
B12,0.00162,47400,34.2
B13,0.000581,48300,12
B14,0.00109,65900,16.5
B15,0.00174,15500,113
B16,0.000287,42600,6.75
B17,0.000755,13100,57.8
B18,0.00141,16000,88.1
B19,0.00198,11300,175

# Target: T2, YU-2 gp140
# Experiment: SPR, gp140 on chip, IgG injected; minus sign of the exponent missing in print (kd/ka gives 3.75e-12)
row,Binder,Kd [nM]
1,B7,0.00375
